These results are taken from the supplement of paper PMC12042874.

± gives the uncertainty stated by the source.

The nature of the series: amyloid nucleation score (Sup35N fusion, yeast selection) (log enrichment); library NNK3; higher = more nucleation; inactive = no reads after selection. In outline: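 Random libraries were run with three technical output replicates. In each, psi-negative yeast expressing Sup35N fused to peptides of 20 random codons were induced 24 hours with 100 μM copper sulfate and grown 7 days at 30°C on medium lacking adenine and uracil, and input and output plasmid inserts were Illumina-sequenced. The nucleation score is the DiMSum log enrichment of output over input reads, centred on the mode score of non-aggregating sequences, and sequences under 100 input reads were excluded.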
For the substance SFLVSFTGVMLEFNCTCHLA, the amyloid nucleation score result was “inactive”.

On to SFPLPS, for which the amyloid nucleation score entry was “inactive”.

Regarding SFPWSCPASYSYQGCWWERD, the amyloid nucleation score entry is “inactive”.

On to SFQFMFSRSSNRDFCILIQR, for which the amyloid nucleation score result was “inactive”.

On to SFRFYVERL, for which the amyloid nucleation score result was “inactive”.

SFRYAYWLSNNCH: the amyloid nucleation score worked out at 0.378 ± 0.4.

Consider SFSRPVHSWAGHY, for which the amyloid nucleation score entry was “inactive”.

As for SFVHGKLILKFRSVNASRQS, the amyloid nucleation score entry was “inactive”.

In the case of SFVMGSAANL, the amyloid nucleation score entry is “inactive”.

As for SFVVN, the amyloid nucleation score entry was “inactive”.

For SFWTMGNS, the amyloid nucleation score result was “inactive”.

With SFYIVVRWMYIRFVDQYLIY, the amyloid nucleation score result was “inactive”.

For the substance SFYRMRVIHSLDYAKVKSTL, the amyloid nucleation score worked out at 0.772 ± 0.2.

For the substance SFYSNGKLLVILFATMMD, the amyloid nucleation score result is “inactive”.

Turning to SGAFYAHHHLSRLLTDEDIS, the amyloid nucleation score result was “inactive”.

For SGCGLMQNGMSCLIEFTVAK, the amyloid nucleation score result is “inactive”.

As for SGFDGTPFVLLSSDMFSNIG, the amyloid nucleation score entry is “inactive”.

SGFFSVAGIGWYTIYFCIYR: the amyloid nucleation score result is “inactive”.

On to SGHSAFGKKGLRGM, for which the amyloid nucleation score result was “inactive”.

Regarding SGKSFNVTGLPCMAWCRATD, the amyloid nucleation score entry is “inactive”.

With SGLACRYCTMVGCNLNYNYW, the amyloid nucleation score turned out to be 2.58 ± 0.055.

Turning to SGLKTFLEMSLHLCVLLARA, the amyloid nucleation score result was “inactive”.

With SGLKVCYNYEDGRMVSLGYH, the amyloid nucleation score result is “inactive”.

As for SGLWW, the amyloid nucleation score result is “inactive”.

Regarding SGSKKCAFRHVRIHFRLTAG, the amyloid nucleation score entry is “inactive”.

Regarding SGSLGFYTP, the amyloid nucleation score result was “inactive”.

On to SGTSFISTKFSISLSIWLTA, for which the amyloid nucleation score entry is “inactive”.

On to SGVWTF, for which the amyloid nucleation score result is “inactive”.

Regarding SHIVFM, the amyloid nucleation score result is “inactive”.

The substance SHNRCVEWFKWIF returned an amyloid nucleation score of 0.885 ± 0.09.

Take SHSAFEGKVC: the amyloid nucleation score entry was “inactive”.

In the case of SHSVYIFFVSTFVGSLWSLP, the amyloid nucleation score entry is “inactive”.

Turning to SHVKYNNMW, the amyloid nucleation score entry was “inactive”.

Turning to SHVWFDRGLIETEMSAHRY, the amyloid nucleation score entry was “inactive”.

On to SIDNLSPRPTWSGIMFSHCL, for which the amyloid nucleation score entry is “inactive”.

With SIEMRLCQDWTQLESLT, the amyloid nucleation score was -0.252 ± 0.66.

On to SIESPSNIMS, for which the amyloid nucleation score result is “inactive”.

Take SIGNAVYMIVGITGVRRRIY: the amyloid nucleation score entry is “inactive”.

For the substance SIGPVCIRTQSRPQITLRMM, the amyloid nucleation score entry was “inactive”.

Take SIGVRTRLKLCC: the amyloid nucleation score entry is “inactive”.

Take SILLVFHFKANVCLVFT: the amyloid nucleation score entry is “inactive”.

Turning to SILYD, the amyloid nucleation score entry was “inactive”.

As for SINSLFAESGLMLTFRMSSE, the amyloid nucleation score entry is “inactive”.

Regarding SIPPRMRCFLGCFWSISWDA, the amyloid nucleation score result is “inactive”.

With SIPWLIVINTSHLLVIFNAI, the amyloid nucleation score entry was “inactive”.

The substance SISIFHNCF registered an amyloid nucleation score of 2.66 ± 0.063.

Regarding SISSEALVFYFRIAGTVIKR, the amyloid nucleation score result was “inactive”.

Consider SISSYMD, for which the amyloid nucleation score result was “inactive”.

For SITRWFHTVMSIFKFYFEFD, the amyloid nucleation score result is “inactive”.

As for SITSFDFLINRVSMPSYNCG, the amyloid nucleation score entry is “inactive”.

Take SITWET: the amyloid nucleation score result was “inactive”.

Turning to SIWWYNLVVI, the amyloid nucleation score result was “inactive”.

Turning to SKAMWLSLM, the amyloid nucleation score result is “inactive”.

As to SKCVGFIMNFLISSDNEDSN, the amyloid nucleation score turned out to be 2.27 ± 0.053.

Take SKFFLPQTEFPQKGLTPITA: the amyloid nucleation score entry is “inactive”.

In the case of SKFLVNGAGLDELDVLVCLL, the amyloid nucleation score entry was “inactive”.

On to SKGLCPVWIVLYKACHSMIF, for which the amyloid nucleation score entry was “inactive”.

On to SKLFVSVSTTIYFEEPSPA, for which the amyloid nucleation score entry is “inactive”.

As to SKLYYHNQLCFILMHTA, the amyloid nucleation score entry is “inactive”.

As for SKNATIQAMFERLVVVIS, the amyloid nucleation score result was “inactive”.

In the case of SKPLFMTNNVTMGTIWPHMG, the amyloid nucleation score entry was “inactive”.

Substance SKTFNDPFLLNHLNTFIKPR gave an amyloid nucleation score of -0.259 ± 0.93.

As to SKTMALMYLSFQPHYLYTLC, the amyloid nucleation score entry is “inactive”.

Take SKTPLCMNYFL: the amyloid nucleation score result was “inactive”.

As for SKVMVHVIWEIVILFMKSKI, the amyloid nucleation score result is “inactive”.

SKWAYIAFGVFVLLFALFNK showed an amyloid nucleation score of -0.161 ± 0.27.

SLALFFGIHPNLCFTDTSST registered an amyloid nucleation score of 0.559 ± 0.2.

SLCDSVGSKSVF: the amyloid nucleation score result is “inactive”.

Substance SLCLVSLLCFSFRCNDGKWR returned an amyloid nucleation score of 1.38 ± 0.084.

With SLDIKPSMRCGRRCVRGRST, the amyloid nucleation score result is “inactive”.

Turning to SLDWCIRVITGGLRSVVRA, the amyloid nucleation score entry is “inactive”.

As to SLFGVNGMSAPGRRDV, the amyloid nucleation score worked out at 0.589 ± 0.31.

As for SLFRFVDECCMNDFRLRLSC, the amyloid nucleation score entry is “inactive”.

Take SLFSEMSVYMQDYFWVT: the amyloid nucleation score entry is “inactive”.

In the case of SLFSGVYSFYY, the amyloid nucleation score result is “inactive”.

Take SLGSMAAVLSPSTAERPANL: the amyloid nucleation score entry was “inactive”.

As to SLGYHLYRHARVCYRMCDIW, the amyloid nucleation score entry is “inactive”.

As for SLHVSTAFVFDIVLSNYLPV, the amyloid nucleation score entry was “inactive”.

On to SLIDRIIVKPKVWTGGKNYP, for which the amyloid nucleation score entry was “inactive”.

Consider SLIIDKGPDVYCSWTVERIT, for which the amyloid nucleation score entry is “inactive”.

As for SLILENLFVSFLTSKIILGF, the amyloid nucleation score entry was “inactive”.

Regarding SLILERFNRHCVWGVSVKKH, the amyloid nucleation score entry was “inactive”.

With SLIYTKYLLMYFIILFLDGG, the amyloid nucleation score result is “inactive”.

In the case of SLKCIRSVLNPWAGAALYPS, the amyloid nucleation score result is “inactive”.

Take SLLFRSLIWSTFDPCSELGP: the amyloid nucleation score result is “inactive”.

Take SLLFTGHLCLYHTLVCCVFI: the amyloid nucleation score is 1.28 ± 0.11.

In turn, SLLRFSLGSCWTFSPKGNYL gave an amyloid nucleation score of 1.87 ± 0.085.

Consider SLLWSLSTYNVRIIHMM, for which the amyloid nucleation score entry is “inactive”.

With SLMDVN, the amyloid nucleation score entry was “inactive”.

Consider SLMLGYETFFMPCGQDMAKW, for which the amyloid nucleation score entry was “inactive”.

Substance SLMYKCLINSILY came in with an amyloid nucleation score of 1.97 ± 0.051.

SLNNYFYSTNYETSFTLD: the amyloid nucleation score entry was “inactive”.

The substance SLRFCWILGENQSGTCSIKR gave an amyloid nucleation score of 1.16 ± 0.15.

In turn, SLSIMYIFTWDGPYIECTFY came in with an amyloid nucleation score of 2.71 ± 0.069.

For the substance SLTEQNL, the amyloid nucleation score entry was “inactive”.

Turning to SLTRQLEPADNTDPRCVKSV, the amyloid nucleation score result was “inactive”.

Turning to SLVIAQARANRNILLLTVAR, the amyloid nucleation score entry is “inactive”.

SLWIYTMSYCLSWNYDCFG returned an amyloid nucleation score of 0.669 ± 0.17.

With SLYRDLHFYSVLGF, the amyloid nucleation score result is “inactive”.

With SLYVHRSIANGF, the amyloid nucleation score entry was “inactive”.

In the case of SMASGRSALIKVV, the amyloid nucleation score result is “inactive”.

For the substance SMCCCNILDLNRN, the amyloid nucleation score was determined as 3.11 ± 0.057.

As to SMCGYWRHI, the amyloid nucleation score result was “inactive”.

For the substance SMFSLWNS, the amyloid nucleation score result is “inactive”.

With SMHARGDL, the amyloid nucleation score result is “inactive”.

With SMLGHKIN, the amyloid nucleation score entry is “inactive”.

With SMQVQMTWLCDRSSLGQRNL, the amyloid nucleation score was found to be 1.61 ± 0.074.

For SMRSRCNFFTVCSAWLSFWE, the amyloid nucleation score result is “inactive”.

Turning to SMWYLVLN, the amyloid nucleation score result was “inactive”.

Take SNALYCPWHWLIHQVV: the amyloid nucleation score result is “inactive”.

For the substance SNCRNQFRERVLIAGVLWVV, the amyloid nucleation score result was “inactive”.

Consider SNESLWVSLIICFVTHWFQI, for which the amyloid nucleation score entry is “inactive”.

As to SNFLLSSLIHLVPMMSL, the amyloid nucleation score entry is “inactive”.

With SNGLGLSLGNESANKEA, the amyloid nucleation score entry is “inactive”.

Consider SNICKLFCCTESIKSQTRLW, for which the amyloid nucleation score was determined as 2.61 ± 0.082.

As for SNIRVKFHTPSIGMRCLRTR, the amyloid nucleation score result was “inactive”.

On to SNLFFSDWTLCCRCIVLVFK, for which the amyloid nucleation score was 1.6 ± 0.097.

For SNMVPLVNSIPRKGVVKG, the amyloid nucleation score result was “inactive”.

SNPGAMSMCEYGGLFSRWLY came in with an amyloid nucleation score of -0.516 ± 0.96.

With SNPGSALDIMGTNQIYPSQH, the amyloid nucleation score entry was “inactive”.

For SNPHIILID, the amyloid nucleation score result is “inactive”.

In turn, SNSVHISLYIGSPSFA registered an amyloid nucleation score of 2.56 ± 0.086.

On to SNVVSTS, for which the amyloid nucleation score result was “inactive”.

In the case of SNVVYMKYRMAVLVTLGICG, the amyloid nucleation score entry is “inactive”.

In the case of SNYICTYIQKFSIVYCIPSH, the amyloid nucleation score came out at 1.96 ± 0.08.

Turning to SPFCFSCIHACWGNEKIRWV, the amyloid nucleation score entry is “inactive”.

As to SPFLCLLLDNEGKVLKVSYK, the amyloid nucleation score result was “inactive”.

In turn, SPGGLGFSVNLHCSTYFRPS displayed an amyloid nucleation score of 1.24 ± 0.14.

The substance SPLRRCMCSFDDAKWWMCGE yielded an amyloid nucleation score of 0.803 ± 0.25.

On to SPWLSAHRSNTGVRTLSLEV, for which the amyloid nucleation score result is “inactive”.

Turning to SPYTVQ, the amyloid nucleation score result was “inactive”.

Turning to SQFLLGSQ, the amyloid nucleation score result is “inactive”.
